Positions count from the first letter of the chain named. Each block holds one molecule with its values, some of them ahead of it.
How the values were obtained:
[1] = target: T1, Human DR5 (Homo sapiens, UniProt O14763); test: Binding affinity of antibody to human DR5 (BIAcore, CM5 chip); details: for Ka(1/Ms) / Ka: association rate, Human DR5, 1:1 Langmuir binding model; for Kd: equilibrium dissociation constant, Human DR5
Procedure: In order to measure affinity, human DR5 was coupled to carboxylated dextran biosensor chips (CM5, GE) according to the manufacturer's instruction. Association and dissociation rates were assessed by injecting IgG proteins that were 2-fold serially diluted to 5 nM, 2.5 nM, 1.25 nM, 0.625 nM, 0.313 nM, and 0.156 nM.
Association and dissociation rates were depicted in association and dissociation sensorgrams and calculated using a simple 1:1 Langmuir binding model (BIAcore X100 Evaluation Software, ver. 2.0). The equilibrium dissociation constants (KD), which is the ratio of dissociation constant (Kd) to association constant (Ka), were confirmed to be in the sub-nanomolar range. Measurements of the binding of antibody D0 and DA1 to DA35 of the present disclosure to DR5 are given in Table 11 below (antibody names are given as the names of the clones from which the antibodies were derived). A representative sensorgram for D0 is depicted in FIG. 1.

[2] = target: T1, Human DR5; test: TRAIL competitive enzyme-linked immunosorbent assay; assay type: binding; details: 0.01-400 nM of TRAIL protein, absorbance at 405 nm
Procedure: In order to examine antigen-binding characteristics of the antibodies selected in Example 3, a TRAIL competitive enzyme-linked immunosorbent assay was conducted. ELISA plates were coated with 0.1 μg/ml human DR5 (R&D systems, U.S.A.) at 4° C. Thereafter, the plates were incubated with 0.01 nM-1440 nM of antibodies (D0, DA20, DA21, DA21, DA22, and DA23) together with 0.01-400 nM of TRAIL protein for 2 hours. After the plates were washed three times with PBST (0.1% bovine serum albumin and Tween-20 in PBS), HRP (horse radish peroxidase)-conjugated anti-human immunoglobulin Fc was added to each well and incubated for 1 hour. After three washes with PBST, color development was performed for 20 min with ABTS (Thermo, U.S.A.). When the color development reached to a certain level, the reaction was terminated with 1 N sulfuric acid. Absorbance at 405 nm was measured using a spectrophotometer (Molecular Device, U.S.A.) and is depicted in FIGS. 8a and 8b. The antibody AP disclosed in Example (7-1) was used as a control.

[3] = Pharmacokinetics of antibody in nude mice (plasma ELISA); assay type: in vivo; details: intravenous, 10 mg/kg
Procedure: In order to examine in vivo kinetics of the antibodies constructed above, blood half-life was evaluated in mice. Antibodies were intravenously injected at doses of 1-10 mg/kg into nude mice. Blood was sampled from the orbital vein from 5 min to 14 days after injection. The blood collection was conducted using heparinized capillary tubes. Plasma obtained by centrifugation of the blood samples was diluted at certain ratios and used as samples for ELISA evaluation. Human DR5 diluted to a concentration of 10 ng/ml was plated at 100 μl per well onto 96-well immune plates (Nunc, U.S.A.) and adsorbed to the wells for 12-14 hours. The plates were washed three times with buffer solution containing 0.1% Tween 20 and blocked with buffer solution containing bovine serum albumin (Sigma, U.S.A.) at room temperature for 1 hour. After three rounds of washing with buffer solution, the plates were incubated with each of the mouse plasma dilutions and a serial dilution of standard substance at room temperature for 2 to 3 hours. After three washes with buffer solution, a 1:20000 dilution of an HRP-conjugated anti-human immunoglobulin Fc (Fc-HRP) antibody (Bethyl, U.S.A.) was added at a volume of 100 μl per well and incubated at room temperature for 1 hour. After washing three times, 100 μl of a TMB solution (Sigma, U.S.A.) was added to each well and allowed to react. When the color development reached a certain level, the reaction was terminated with 0.2 N sulfuric acid solution. Absorbance at 450 nm was measured using a spectrophotometer (Molecular Device, U.S.A.). The antibody concentration in each plasma sample was calculated from the optical density (OD) measurements, and pharmacokinetic parameters were estimated using WinNonLin ver. 6.2.0.495.

[4] = test system: human colorectal cancer cell line Colo205; test: Cell death activity upon co-treatment with TRAIL, Colo205; assay type: cell-based; details: Colo205, antibody as low as 10 ng/ml, TRAIL 0.5, 1, 10 ng/ml
Procedure: (§1) Antibody properties according to epitopes were analyzed in terms of cell death activity upon co-treatment with the constructed antibodies and TRAIL. In this test, the human colorectal cancer cell line Colo205 (ATCC, U.S.A.) and the human pancreatic cell line Miapaca-2 (ATCC, U.S.A.) were employed. The tumor cells were suspended at a concentration of 1×10^5 cells/ml and the suspensions were plated at 50 μl per well into 96-well culture plates, followed by incubation for 16-24 hours in a constant temperature and humidity chamber. Serial dilutions of the antibodies (0.1-10000 ng/ml) and TRAIL protein at determined concentrations (0.5, 1, 10 ng/ml) were applied in combination to the 96-well plates. After incubation for 48 to 72 hours at a constant temperature in a humidified condition, a resazurin solution (Invitrogen, U.S.A.) was added at an amount of 10 μl to per well. When the reaction reached a certain level after 1 to 2 hours, fluorescence was read at 590 nm using a spectrophotometer (Molecular Device). Cell viability was calculated as the percentage of relative fluorescence units (RFU) of a test substance-treated group (treated RFU) to the relative fluorescence units of a culture medium-treated group (untreated RFU) (Cell viability (%)=treated RFU/Untreated RFU×100).
(§2) Representative results are depicted in FIGS. 9a (Colo205) and 9b (Miapaca-2). […]

[5] = test system: human pancreatic cell line Miapaca-2; test: Cell death activity upon co-treatment with TRAIL, Miapaca-2; assay type: cell-based; details: Miapaca-2, antibody as low as 10 ng/ml, TRAIL 0.5, 1, 10 ng/ml
Procedure: as §1, §2

Ka(1/Ms) [1]: 1.00 × 10^06 1/Ms | Kd [1]: 0.012 nM
B1: DA20: humanized or deimmunized variant of parental clone D0; CDRs SEQ ID NO 1, 2, 7 / 4, 10, 14 (antibody, V domains shown)
VH: EVQLVESGGGLVQPGGSLRLSCAASGFTFSSFNMLWVRQAPGKGLEWVAGIGKSDRYTGYGSAVKGRFTISRDDSKSTVYLQMNSLRAEDTAVYYCVRDAGSGCGSGGWTGACIDTWGQGTLVTVSS
VL: DIQMTQSPSSLSASVGDRVTITCSGGDSYAGSYYYGWYQQKPGKAPKTLIYNNNNRPSGVPSRFSGSRSGTDFTLTISSLQPEDFATYYCGSRDSAGMGAFGQGTKVEIK
antigen binding in the presence of TRAIL [2]: maintained a certain level of antigen binding irrespective of TRAIL concentrations

Ka(1/Ms) [1]: 1.11 × 10^06 1/Ms | Kd [1]: 0.00643 nM
B2: DA21: humanized or deimmunized variant of parental clone D0; CDRs SEQ ID NO 1, 2, 7 / 4, 10, 16 (antibody, V domains shown)
VH: B1 VH
VL: B1 VL with A96S, M98A, A100G
antigen binding in the presence of TRAIL [2]: maintained a certain level of antigen binding irrespective of TRAIL concentrations

Ka [1]: 4.9e+06 M⁻¹ s⁻¹
B3: DA1: humanized or deimmunized variant of parental clone D0; CDRs SEQ ID NO 1, 2, 7 / 4, 10, 13 (antibody, V domains shown)
VH: B1 VH
VL: B1 VL with R68T, A96S, G97Y, M98V, A100I

Ka(1/Ms) [1]: 6.96 × 10^05 1/Ms | Kd [1]: 0.0403 nM
B4: DA23: humanized or deimmunized variant of parental clone D0; CDRs SEQ ID NO 1, 2, 9 / 4, 10, 13 (antibody, V domains shown)
VH: B1 VH with G103P, S106K
VL: B1 VL with R68T, A96S, G97Y, M98V, A100I
Cmax [3]: 195.8 µg/mL | t½ Terminal (2 d~14 d) [3]: 191 h | t½ initial (−1 d) [3]: 13.9 h | antigen binding in the presence of TRAIL [2]: maintained a certain level of antigen binding irrespective of TRAIL concentrations | cell death activity in combination with TRAIL, compared to antibody alone [4]: higher cell death activity | cell death activity in combination with TRAIL, compared to antibody alone [5]: higher cell death activity

Ka [1]: 4.9e+06 M⁻¹ s⁻¹
B5: DA3: humanized or deimmunized variant of parental clone D0; CDRs SEQ ID NO 1, 2, 7 / 4, 10, 13 (antibody, V domains shown)
VH: B1 VH with D74T
VL: B1 VL with R68T, A96S, G97Y, M98V, A100I

Ka [1]: 1.9e+06 M⁻¹ s⁻¹
B6: DA2: humanized or deimmunized variant of parental clone D0; CDRs SEQ ID NO 1, 2, 7 / 4, 10, 13 (antibody, V domains shown)
VH: B1 VH
VL: B1 VL with A96S, G97Y, M98V, A100I

Ka [1]: 1.2e+06 M⁻¹ s⁻¹
B7: DA4: humanized or deimmunized variant of parental clone D0; CDRs SEQ ID NO 1, 2, 7 / 4, 10, 13 (antibody, V domains shown)
VH: B1 VH with S77N
VL: B1 VL with R68T, A96S, G97Y, M98V, A100I

Ka(1/Ms) [1]: 9.32 × 10^05 1/Ms | Kd [1]: 0.0342 nM
B8: DA22: humanized or deimmunized variant of parental clone D0; CDRs SEQ ID NO 1, 2, 8 / 4, 10, 13 (antibody, V domains shown)
VH: B1 VH with G103P
VL: B1 VL with R68T, A96S, G97Y, M98V, A100I
Cmax [3]: 227.9 µg/mL | t½ Terminal (2 d~14 d) [3]: 201 h | t½ initial (−1 d) [3]: 16.8 h | antigen binding in the presence of TRAIL [2]: maintained a certain level of antigen binding irrespective of TRAIL concentrations

Ka(1/Ms) [1]: 1.13 × 10^06 1/Ms | Kd [1]: 0.0801 nM
B9: DA35: humanized or deimmunized variant of parental clone D0; CDRs SEQ ID NO 1, 2, 7 / 4, 10, 13 (antibody, V domains shown)
VH: AVTLDESGGGLQTPGGGLSLVCKGSGFTFSSFNMLWVRQAPGKGLEWVAGIGKSDRYTGYGSAVKGRATISRDDGQSTARLQMNSLRAEDTAVYYCVKDAGSGCGSGGWTGACIDTWGHGTEVIVSS
VL: LTQPSSVSANLGGTVEITCSGGDSYAGSYYYGWYQQKAPGSAPVTVIYNNNNRPSNIPSRFSGSTSGSTATLTITGVQAEDEATYFCGSRDSSYVGIFGAGTTLTVL
